Article PMC3654228 (Nature communications, 2012)
Blank lines part the entries; values can stand above or below the binder they belong to.

Experiments:
[1] = target: T1, Nxf1 (of the Nxf1:p15 used for gel filtration) (human, UniProt Q9UBU9 1-619); assay: SEC
T1 sequence (looked up): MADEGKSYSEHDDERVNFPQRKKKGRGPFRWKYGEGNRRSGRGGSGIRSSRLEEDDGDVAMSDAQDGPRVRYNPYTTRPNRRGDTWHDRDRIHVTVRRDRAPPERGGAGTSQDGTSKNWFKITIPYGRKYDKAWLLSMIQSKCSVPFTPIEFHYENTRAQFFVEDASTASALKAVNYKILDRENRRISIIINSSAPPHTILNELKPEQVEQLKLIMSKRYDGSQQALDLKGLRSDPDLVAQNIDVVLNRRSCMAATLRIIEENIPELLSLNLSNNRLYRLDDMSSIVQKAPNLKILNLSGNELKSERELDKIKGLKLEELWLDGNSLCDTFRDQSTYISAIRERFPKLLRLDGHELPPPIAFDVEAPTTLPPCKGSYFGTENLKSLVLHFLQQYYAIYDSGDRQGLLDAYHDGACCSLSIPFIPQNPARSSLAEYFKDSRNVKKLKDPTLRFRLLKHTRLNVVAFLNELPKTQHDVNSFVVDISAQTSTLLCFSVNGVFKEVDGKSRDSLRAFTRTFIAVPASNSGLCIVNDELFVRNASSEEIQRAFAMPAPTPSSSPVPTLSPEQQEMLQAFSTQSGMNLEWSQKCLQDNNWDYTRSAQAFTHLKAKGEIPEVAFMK

GST-RBD-psiRRM-LRR = target: T2, GST-RBD-psiRRM-LRR (Homo sapiens, UniProt Q9UBU9 1-372); assay: UV crosslinking
T2 sequence: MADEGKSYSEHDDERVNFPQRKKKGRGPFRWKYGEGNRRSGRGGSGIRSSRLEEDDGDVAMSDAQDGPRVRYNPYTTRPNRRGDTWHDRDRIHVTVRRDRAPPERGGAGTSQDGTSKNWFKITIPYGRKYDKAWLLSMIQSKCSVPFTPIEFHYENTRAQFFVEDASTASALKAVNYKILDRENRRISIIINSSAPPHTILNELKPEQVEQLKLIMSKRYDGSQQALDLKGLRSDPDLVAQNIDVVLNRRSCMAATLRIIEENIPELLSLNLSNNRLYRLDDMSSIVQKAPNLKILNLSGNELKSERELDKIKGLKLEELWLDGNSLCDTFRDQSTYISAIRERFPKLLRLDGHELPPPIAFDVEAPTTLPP

Aly = Aly (UniProt Q9JJW6 1-218); assay: UV crosslinking
GST-Nxf1:p15;Aly = GST-Nxf1:p15;Aly (Homo sapiens;, UniProt Q9UBU9;Q9UKK6;Q9JJW6 1-619;1-140;1-218, |); assay: GST pulldown then UV crosslinking
6His-RBD-psiRRM-LRR = target: T3, 6His-RBD-psiRRM-LRR (Homo sapiens, UniProt Q9UBU9 1-372); assay: UV crosslinking
T3 sequence: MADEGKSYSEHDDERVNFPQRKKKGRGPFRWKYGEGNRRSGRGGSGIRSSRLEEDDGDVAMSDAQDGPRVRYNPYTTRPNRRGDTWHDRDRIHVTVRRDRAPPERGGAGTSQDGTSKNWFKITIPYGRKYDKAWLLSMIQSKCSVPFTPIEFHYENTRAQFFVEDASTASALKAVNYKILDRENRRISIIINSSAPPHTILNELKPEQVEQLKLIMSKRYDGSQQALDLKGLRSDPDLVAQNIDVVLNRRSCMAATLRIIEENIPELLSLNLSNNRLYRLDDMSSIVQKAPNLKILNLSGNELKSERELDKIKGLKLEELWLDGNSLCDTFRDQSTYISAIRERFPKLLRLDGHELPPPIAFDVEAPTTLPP

GST-Nxf1:p15;Aly;Thoc5 = GST-Nxf1:p15;Aly;Thoc5 (Homo sapiens;;Homo sapiens?, UniProt Q9UBU9;Q9UKK6;Q9JJW6;Q13769 1-619;1-140;1-218;1-683, ||); assay: GST pulldown then UV crosslinking

stoichiometry N [1]: 1
B1: p15 (natural protein)
chain: MASVDFKTYVDQACRAAEEFVNVYYTTMDKRRRLLSRLYMGTATLVWNGNAVSGQESLSEFFEMLPSSEFQISVVDCQPVHDEATPSQTTVLVVICGSVKFEGNKQRDFNQNFILTAQASPSNTVWKIASDCFRFQDWAS

B2: 15-mer RNA (ssRNA)
RNA: CAGUCGCAUAGUGCA
binding result (GST-RBD-psiRRM-LRR): binds
binding result (Aly): binds
binding result (GST-Nxf1:p15;Aly): binds
binding result (6His-RBD-psiRRM-LRR): binds
binding result (GST-Nxf1:p15;Aly;Thoc5): binds
